The text below walks through data of PMC3061877, “Comparison of the Frequency of Functional SH3 Domains with Different Limited Sets of Amino Acids Using mRNA Display” (PLoS ONE, 2011).

The assay addresses wild-type src SH3 domain (T7·tag/His6 construct) (UniProt P00523 81-140). The assay is described as follows: other fluorescence titration; fluorescence perturbation assay; aliquots of peptide added to SH3 domain (0.5 µM) in PBS pH 7.4, 10 min at 20°C; excitation 278 nm, emission 350 nm. As to conditions: both partners purified.

B1: VSL12 peptide (peptide)
peptide: VSLARRPLPPLP
notes: The methods of the fluorescence perturbation assay say only 'peptide VSL12'; also called free VSL12 peptide; peptide VSL12; source: synthetic peptide, bought: Invitrogen
As for B1, binding was put at a Kd of 2.3 ± 0.47 µM.

A word on the Kd: it is the concentration at which binding is half-saturated. High values mean a looser complex, low ones a tighter complex.
